Laboratory results as given in the supplement of paper PMC10126150.
± gives the standard deviation of the averaged measurements.

Tested on: ATP
Experiment: switch fluorescence ratio, 500 uM ATP over buffer (Cy3 cluster intensity, sum of 5 cycles each) (fold (ratio)); higher = stronger signal-on switching upon ATP binding; sequences stand for … in TCGTCGGCAGCGTCAGATGTGTATAAGAGACAGTTTTTTTTTTTTTTTTTTTTTTTTT…TC
Settings: aptamer strand: ATP DNA aptamer (quencher-CACCTGGGGGAGTATTGCGGAGGAAGG + anchor), 100 nM annealed; ATP concentration: 500 uM
Outline: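 Exposure to 500 uM ATP lasted 15 min at 22 °C before imaging, and a selection-buffer image was taken beforehand, for Cy3-labelled switching-strand clusters on a modified Illumina MiSeq flow-cell annealed to 100 nM quencher-labelled ATP aptamer. Five buffer/ATP cycles were run with NaOH stripping and re-annealing between them. The fluorescence ratio per cluster is summed target-cycle over summed buffer-cycle Cy3 intensity, averaged per switch-domain sequence. Clusters outside 100-1000 RFU were excluded.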

**Q.** For TCATGTTATG, which switch fluorescence ratio is on record?
**A.** The switch fluorescence ratio was 0.971 ± 0.065.

**Q.** With TAAGAGAGAA as the sequence, how does the switch fluorescence ratio read?
**A.** Its switch fluorescence ratio is 0.986 ± 0.021.

**Q.** Which switch fluorescence ratio does the source give for ATGATTACGA here?
**A.** Its switch fluorescence ratio is 1.03 ± 0.026.

**Q.** Which switch fluorescence ratio does the source give for TTGAGTTTAA here?
**A.** The switch fluorescence ratio was 1.003 ± 0.0065.

**Q.** How did the switch fluorescence ratio turn out when TCAGGAGGGG was run?
**A.** Its switch fluorescence ratio is 0.997 ± 0.02.

**Q.** How did the switch fluorescence ratio turn out when GGGTGTCGGT was run?
**A.** The switch fluorescence ratio was 0.984 ± 0.024.

**Q.** GCTTTCCGGC was tested. Which switch fluorescence ratio did it give?
**A.** Its switch fluorescence ratio is 1.02 ± 0.078.

**Q.** Which switch fluorescence ratio does the source give for CGAGTTTTCG here?
**A.** The switch fluorescence ratio was 1 ± 0.03.

**Q.** For CGTAAAACGC, which switch fluorescence ratio is on record?
**A.** Its switch fluorescence ratio is 1.02 ± 0.03.

**Q.** With GAGGGGAAGC as the sequence, how does the switch fluorescence ratio read?
**A.** Its switch fluorescence ratio is 0.985 ± 0.046.

**Q.** With GTTAGCGCTT as the sequence, how does the switch fluorescence ratio read?
**A.** The switch fluorescence ratio was 0.974 ± 0.025.

**Q.** Which switch fluorescence ratio does the source give for AAAGGAAATT here?
**A.** Its switch fluorescence ratio is 1 ± 0.033.

**Q.** GGGTCATTCA was tested. Which switch fluorescence ratio did it give?
**A.** The switch fluorescence ratio was 0.9922 ± 0.0049.

**Q.** How did the switch fluorescence ratio turn out when CCTGTAGGTA was run?
**A.** Its switch fluorescence ratio is 1.009 ± 0.0069.

**Q.** Which switch fluorescence ratio does the source give for ATAAGCAGGA here?
**A.** The switch fluorescence ratio was 1.02 ± 0.017.

**Q.** With GAACAAGGGA as the sequence, how does the switch fluorescence ratio read?
**A.** The switch fluorescence ratio was 1.004 ± 0.0086.

**Q.** Which switch fluorescence ratio does the source give for GAGGTTTGGC here?
**A.** The switch fluorescence ratio was 0.988 ± 0.051.

**Q.** TTTCCCTGTT was tested. Which switch fluorescence ratio did it give?
**A.** The switch fluorescence ratio was 1.05 ± 0.076.

**Q.** CAAATGGTGG was tested. Which switch fluorescence ratio did it give?
**A.** The switch fluorescence ratio was 1.02 ± 0.0022.

**Q.** How did the switch fluorescence ratio turn out when CGGATGAGGA was run?
**A.** Its switch fluorescence ratio is 0.984 ± 0.01.

**Q.** How did the switch fluorescence ratio turn out when TTAAGTTGTT was run?
**A.** The switch fluorescence ratio was 0.965 ± 0.016.

**Q.** TGCCGGACGA was tested. Which switch fluorescence ratio did it give?
**A.** The switch fluorescence ratio was 1.065 ± 0.0037.

**Q.** For ATGTGTATCG, which switch fluorescence ratio is on record?
**A.** The switch fluorescence ratio was 0.969 ± 0.039.

**Q.** With AATAGTAGGG as the sequence, how does the switch fluorescence ratio read?
**A.** Its switch fluorescence ratio is 1.01 ± 0.017.

**Q.** With CTAAATATTA as the sequence, how does the switch fluorescence ratio read?
**A.** Its switch fluorescence ratio is 1.031 ± 0.0049.

**Q.** For GGCGCCGTTG, which switch fluorescence ratio is on record?
**A.** The switch fluorescence ratio was 0.978 ± 0.019.

**Q.** Which switch fluorescence ratio does the source give for GGGGTGTTGG here?
**A.** Its switch fluorescence ratio is 1.01 ± 0.019.

**Q.** How did the switch fluorescence ratio turn out when TTATATTGAT was run?
**A.** Its switch fluorescence ratio is 1.017 ± 0.0029.

**Q.** For AAGAAGTCCT, which switch fluorescence ratio is on record?
**A.** Its switch fluorescence ratio is 0.983 ± 0.034.

**Q.** For TGATTTTTAC, which switch fluorescence ratio is on record?
**A.** Its switch fluorescence ratio is 1.08 ± 0.092.

**Q.** Which switch fluorescence ratio does the source give for TTTCTACGTA here?
**A.** Its switch fluorescence ratio is 1.13 ± 0.14.

**Q.** For GACTGTAAGG, which switch fluorescence ratio is on record?
**A.** Its switch fluorescence ratio is 0.997 ± 0.08.

**Q.** Which switch fluorescence ratio does the source give for CTTCGTATCG here?
**A.** The switch fluorescence ratio was 1.04 ± 0.059.

**Q.** GTAACGTTAG was tested. Which switch fluorescence ratio did it give?
**A.** Its switch fluorescence ratio is 0.998 ± 0.042.

**Q.** How did the switch fluorescence ratio turn out when GAGGGGTCCG was run?
**A.** The switch fluorescence ratio was 1 ± 0.11.

**Q.** GTTGGGGATC was tested. Which switch fluorescence ratio did it give?
**A.** Its switch fluorescence ratio is 0.991 ± 0.025.

**Q.** With GTTTGCGTTG as the sequence, how does the switch fluorescence ratio read?
**A.** The switch fluorescence ratio was 0.979 ± 0.042.

**Q.** For CGAAGTTTGT, which switch fluorescence ratio is on record?
**A.** The switch fluorescence ratio was 0.98 ± 0.01.

**Q.** For CTTTTAATAG, which switch fluorescence ratio is on record?
**A.** Its switch fluorescence ratio is 1.08 ± 0.057.

**Q.** For AGTTCGGCGT, which switch fluorescence ratio is on record?
**A.** The switch fluorescence ratio was 0.999 ± 0.029.

**Q.** With CAGTAATGTT as the sequence, how does the switch fluorescence ratio read?
**A.** Its switch fluorescence ratio is 0.994 ± 0.033.

**Q.** With GCACTTTAGC as the sequence, how does the switch fluorescence ratio read?
**A.** The switch fluorescence ratio was 1.03 ± 0.018.

**Q.** For CGTTAGGGTA, which switch fluorescence ratio is on record?
**A.** The switch fluorescence ratio was 0.9911 ± 0.003.

**Q.** Which switch fluorescence ratio does the source give for TTCATAGTAC here?
**A.** Its switch fluorescence ratio is 1.2 ± 0.22.

**Q.** How did the switch fluorescence ratio turn out when ATATCCGGTT was run?
**A.** Its switch fluorescence ratio is 1 ± 0.041.

**Q.** How did the switch fluorescence ratio turn out when GGCAGAATAA was run?
**A.** The switch fluorescence ratio was 1.05 ± 0.13.

**Q.** With AAATCTGTCA as the sequence, how does the switch fluorescence ratio read?
**A.** The switch fluorescence ratio was 1.03 ± 0.02.

**Q.** How did the switch fluorescence ratio turn out when TAACAATATT was run?
**A.** The switch fluorescence ratio was 0.99495 ± 0.00094.

**Q.** With TCCTTTAAGG as the sequence, how does the switch fluorescence ratio read?
**A.** The switch fluorescence ratio was 1.025 ± 0.003.

**Q.** ATTTTCTTGC was tested. Which switch fluorescence ratio did it give?
**A.** Its switch fluorescence ratio is 1 ± 0.038.

**Q.** TGTGTGTGAA was tested. Which switch fluorescence ratio did it give?
**A.** The switch fluorescence ratio was 0.996 ± 0.035.

**Q.** For AAATAAAAAG, which switch fluorescence ratio is on record?
**A.** The switch fluorescence ratio was 1.01 ± 0.027.

**Q.** CATAGGAGGG was tested. Which switch fluorescence ratio did it give?
**A.** Its switch fluorescence ratio is 0.977 ± 0.056.

**Q.** For GGGGCTTGCG, which switch fluorescence ratio is on record?
**A.** Its switch fluorescence ratio is 0.948 ± 0.045.

**Q.** ACATTTCTCA was tested. Which switch fluorescence ratio did it give?
**A.** Its switch fluorescence ratio is 1.04 ± 0.021.

**Q.** With ATTCCGCCGA as the sequence, how does the switch fluorescence ratio read?
**A.** The switch fluorescence ratio was 1.48 ± 0.08.

**Q.** With AATAAATAGG as the sequence, how does the switch fluorescence ratio read?
**A.** The switch fluorescence ratio was 0.9953 ± 0.0053.

**Q.** GGGGTATATC was tested. Which switch fluorescence ratio did it give?
**A.** The switch fluorescence ratio was 1 ± 0.024.

**Q.** With AGGAACATTA as the sequence, how does the switch fluorescence ratio read?
**A.** Its switch fluorescence ratio is 1.01 ± 0.054.

**Q.** For GAGCTACCCG, which switch fluorescence ratio is on record?
**A.** Its switch fluorescence ratio is 1.04 ± 0.031.

**Q.** GCTTATGAAC was tested. Which switch fluorescence ratio did it give?
**A.** Its switch fluorescence ratio is 1.019 ± 0.0045.

**Q.** GGGGGTTGGA was tested. Which switch fluorescence ratio did it give?
**A.** The switch fluorescence ratio was 1.01 ± 0.032.

**Q.** Which switch fluorescence ratio does the source give for CGGGGCGCGG here?
**A.** Its switch fluorescence ratio is 0.977 ± 0.024.

**Q.** For TCTATTCTCC, which switch fluorescence ratio is on record?
**A.** Its switch fluorescence ratio is 1.52 ± 0.72.

**Q.** How did the switch fluorescence ratio turn out when TAAGAGAATT was run?
**A.** The switch fluorescence ratio was 1.02 ± 0.023.

**Q.** Which switch fluorescence ratio does the source give for TATAGTGAGG here?
**A.** Its switch fluorescence ratio is 1.0603 ± 0.001.

**Q.** Which switch fluorescence ratio does the source give for TGGGGTGGCA here?
**A.** Its switch fluorescence ratio is 1.01 ± 0.045.

**Q.** AAGATGAGCT was tested. Which switch fluorescence ratio did it give?
**A.** The switch fluorescence ratio was 1.004 ± 0.0043.

**Q.** How did the switch fluorescence ratio turn out when TGCATACAGT was run?
**A.** Its switch fluorescence ratio is 1.03 ± 0.046.

**Q.** With CTAATCATAA as the sequence, how does the switch fluorescence ratio read?
**A.** The switch fluorescence ratio was 1 ± 0.052.

**Q.** With TCGTTAATTA as the sequence, how does the switch fluorescence ratio read?
**A.** Its switch fluorescence ratio is 1.06 ± 0.026.

**Q.** How did the switch fluorescence ratio turn out when TCTACGAAGG was run?
**A.** The switch fluorescence ratio was 1.034 ± 0.0012.

**Q.** For TGGTTGTGGG, which switch fluorescence ratio is on record?
**A.** Its switch fluorescence ratio is 0.996 ± 0.028.

**Q.** For GACATTATAT, which switch fluorescence ratio is on record?
**A.** Its switch fluorescence ratio is 1.028 ± 0.0025.

**Q.** With GGGGGAAAGG as the sequence, how does the switch fluorescence ratio read?
**A.** Its switch fluorescence ratio is 1 ± 0.025.

**Q.** Which switch fluorescence ratio does the source give for GAGCTGAGCG here?
**A.** The switch fluorescence ratio was 0.996 ± 0.031.

**Q.** TATCGTAGGC was tested. Which switch fluorescence ratio did it give?
**A.** The switch fluorescence ratio was 0.9996 ± 0.00057.
